The values that follow come from patent publication US20240301046A1 (MABWELL THERAPEUTICS, published 2024).

Substitutions are numbered along the chain they refer to. Read-outs that look alike come from different tables or passages of the source.

The target of assay [1] is T1, HiLyte488 labelled Aβ1-42 protofibrils (UniProt P05067 672-713, HiLyte488 fluorophore on part of the peptides (labelled and unlabelled Aβ1-42 monomers mixed 1:5)). Description: cell-based or functional assay.
The target of assay [2] is T2, Aβ1-42 (rPeptide, A-1167-2) (UniProt P05067 672-713).
T2 construct: domain: Aβ1-42; also called Abeta 1-42
Description: direct ELISA, coated Aβ1-42. As for the experimental part: (§1) Direct ELISA was used to test each antibody's affinity for Aβ₁₋₄₂ and pyroglutamate-modified Aβ (Aβₚ₃₋₄₂). Plates were coated with 0.5 μM of Aβ₁₋₄₂ (rPeptide, A-1167-2) or Aβₚ₃₋₄₂ (AnaSpec, AS-29907-01) for 2 h at 4° C. Diluents of antibodies (3-fold serial dilutions with concentrations in the range of 0-100 nM) were added to the plate for 1 h at RT. Binding of antibody to immobilized Aβ on each plate was detected by HRP-labeled secondary antibody and TMB substrate, as described in Example 2.
On the technique in general: ELISA stands for enzyme-linked immunosorbent assay.

Assay [3] concerns the target T2, Aβ1-42 (rPeptide, A-1167-2). Nature of the assay: direct ELISA, coated Aβ1-42. The source holds these as a separate data set.
The target is the same in assay [4]. Description: direct ELISA, coated Aβ1-42. This is another data set of the same source.
The target of assay [5] is T3, pyroglutamate-modified Aβ (Aβp3-42) (AnaSpec, AS-29907-01) (UniProt P05067 674-713, pyroglutamate at Aβ position 3 (the N-terminus)).
T3 construct: domain: Aβp3-42; also called Abeta p3-42
Nature of the assay: direct ELISA, coated Aβp3-42. As for the experimental part: After 3 washes with 1× Phosphate-Buffered Saline, 0.1% Tween 20 (PBST), each plate was blocked with 1% BSA in PBS for 1 h at room temperature (RT). Diluents of Aβ antibodies (3-fold serial dilutions with concentrations in the range of 0-100 nM) were added to plates. The plate was incubated for 1 h at RT and washed 3 times. The plate was then incubated with HRP conjugated goat anti-mouse IgG (Thermo Fisher Scientific, G-21040; thermofisher.com) 1:5000 diluted in 1% BSA for 1 h at RT and washed 3 times. TMB (3,3′,5,5;-tetramethylbenzidine) Stabilized Chromogen substrate solution (Life Technologies (Thermo Fisher Scientific) SB02) was added to the plate, and the reaction was stopped by adding 1M sulfuric acid. The absorbance at 450 nm was measured in a plate reader.
as §1

Assay [6] has as its target T3, pyroglutamate-modified Aβ (Aβp3-42) …. Description: direct ELISA, coated Aβp3-42. As for the experimental part:
as §1
The source holds these as a separate data set.

Assay [7] addresses T2, Aβ1-42 (rPeptide, A-1167-2). Description: direct ELISA, coated Aβ1-42. The source holds these as a separate data set.
The target in assay [8] is T4, biotin-labelled Aβ1-40 monomer (AnaSpec, AS-61483-01) (UniProt P05067 672-711, biotin label, position not stated).
T4 construct: domain: Aβ1-40; also called biotin-conjugated Aβ40 monomer; biotin-Aβ monomer
Nature of the assay: capture ELISA, coated antibody, biotin-Aβ1-40 monomer. Here is the method: (§2) A 96-well plate was coated with 5 μg/mL of antibodies overnight at RT. The plate was then treated with diluents of biotin-labelled Aβ₁₋₄₀ monomers (AnaSpec, AS-61483-01, 4-fold serial dilutions with concentrations in the range of 0-1000 nM) for 1 h at RT. The binding of biotin-labelled Aβ₁₋₄₀ monomers with immobilized antibody was detected by HRP-conjugated streptavidin and TMB, as described in Example 2.

For assay [9], the target named is T4, biotin-labelled Aβ1-40 monomer …. The description is as above. The source holds these as a separate data set.
For assay [10], the target named is T1, HiLyte488 labelled Aβ1-42 protofibrils. Nature of the assay: cell-based or functional assay. The source holds these as a separate data set.
Assay [11] has as its target T4, biotin-labelled Aβ1-40 monomer …. Nature of the assay: capture ELISA, coated antibody, biotin-Aβ1-40 monomer. As for the experimental part: The plate was incubated for 1 h at RT and washed 3 times with PBST. The plate was then incubated with HRP-conjugated streptavidin (Thermo Fisher Scientific, SNN2004) at 1:5000 diluted in 1% BSA for 20 min at RT and washed 3 times. TMB Stabilized Chromogen substrate solution (Life Technologies, SB02) was added to the plate, and the reaction was stopped by adding 1M sulfuric acid. The absorbance at 450 nm was measured in a plate reader.
as §2
This is another data set of the same source.

Assay [12] addresses T1, HiLyte488 labelled Aβ1-42 protofibrils. Description: cell-based or functional assay. This is another data set of the same source.
For assay [13], the target named is T3, pyroglutamate-modified Aβ (Aβp3-42) …. Description: direct ELISA, coated Aβp3-42. This is another data set of the same source.
In assay [14] the target is T5, Aβ1-42 protofibril (UniProt P05067 672-713).
T5 construct: domain: Aβ1-42; soluble multimer of Aβ1-42; also called Aβ protofibril; Aβ protofibrils
Nature of the assay: ratio of competitive ELISA IC50s, monomer as reference. An excerpt:
The binding was detected by HRP-labeled secondary antibody and TMB substrate, as described in Example 2.

B1: 17P04A (mIgG1) (antibody, V domains shown)
VH: EVQLVESGGGLVKPGGSLRLSCAASGFTLSSFSMNWVRQAPGKGLEWVSSISSRRTYIYYADSAKGRFTFSRDNAKNSLYLQMNSLRAEDSAVYYCARGGYIGSPNAYDIWGQGTMVTVSS
VL: QTVVTQEPSLTVSPGGTVTLTCASSTGAVTSDYYPNWFQQKPGQAPRALIYSASTKHSWTPARFSGSLLGGKAALTLSGVQPEDEADYYCLLYYGGAWVFGGGTKLTVL
notes: chimeric: fully human F(ab')2, mouse IgG1 CH2-CH3; also called 17P64A; 17P4A
The EC50 is the concentration giving half of the maximal effect. Take B1: the entries for the “ADCP (RFU)” value in [1] and in [10] were 328000 RFU and 284000 RFU, respectively. For the same molecule, the EC50 in assay [2] was 0.045 nM; in [3] it was 0.045 nM; in [4] it was under 0.1 nM; in [5], 203 nM; in assay [6], over 50 nM; in assay [7] it was 0.045 nM. Further, the 50% effective concentration (EC50) in assay [8] came to 35.2 nM; in assay [9], 35.2 nM; in assay [11] it was 35.2 nM; in assay [13], 203 nM. Besides, the “relative ADCP” value in assay [12] was 0.79 relative to ADCP response of rfmAb-1.

B2: 17P04A(mIgG2a) (antibody)
heavy: EVQLVESGGGLVKPGGSLRLSCAASGFTLSSFSMNWVRQAPGKGLEWVSSISSRRTYIYYADSAKGRFTFSRDNAKNSLYLQMNSLRAEDSAVYYCARGGYIGSPNAYDIWGQGTMVTVSSASTKGPSVFPLAPCSRSTSESTAALGCLVKDYFPEPVTVSWNSGALTSGVHTFPAVLQSSGLYSLSSVVTVPSSNFGTQTYTCNVDHKPSNTKVDKTVERKCPPCKCPAPNLLGGPSVFIFPPKIKDVLMISLSPIVTCVVVDVSEDDPDVQISWFVNNVEVHTAQTQTHREDYNSTLRVVSALPIQHQDWMSGKEFKCKVNNKDLPAPIERTISKPKGSVRAPQVYVLPPPEEEMTKKQVTLTCMVTDFMPEDIYVEWTNNGKTELNYKNTEPVLDSDGSYFMYSKLRVEKKNWVERNSYSCSVVHEGLHNHHTTKSFSRTPGK
light: QTVVTQEPSLTVSPGGTVTLTCASSTGAVTSDYYPNWFQQKPGQAPRALIYSASTKHSWTPARFSGSLLGGKAALTLSGVQPEDEADYYCLLYYGGAWVFGGGTKLTVLGQPKAAPSVTLFPPSSEELQANKATLVCLISDFYPGAVTVAWKADSSPVKAGVETTTPSKQSNNKYAASSYLSLTPEQWKSHRSYSCQVTHEGSTVEKTVAPTECS
notes: chimeric: human F(ab')2, mouse IgG2a CH2-CH3, recombinant
For B2, in [1], the “ADCP (RFU)” value worked out at 375000 RFU. In addition, the values for the EC50 in [3], in [5] and in [11] were 0.057 nM, 19.4 nM and 59 nM, respectively.

B3: 18P01A (mIgG1) (antibody, V domains shown)
VH: EVQLVESGGGLVQPGGSLKLSCAVSGFTFSGSAMHWVRQASGKGLEWVGRIRSKANSYATAYAASVKGRFTISRDDSKNTAFLQMNSLKTEDTAVYYCTSHAPNFDAFDIWGQGTMVTVSS
VL: QSVLTQPPSVSAAPGQKVTISCSGSSSNIGNHYVSWYQQLPGTAPKFFIYDNSKRPSGIPDRFSGSKSGTSATLGITGLQTGDEADYYCGTWDSSLSTYVFGTGTKVTVL
notes: chimeric: fully human F(ab')2 (human VH, VL, CH1, CL), mouse IgG1 CH2-CH3; also called Chimeric mouse 18P01A (mlgG1); Original 18P01A (mlgG1)
Consider B3, for which the “ADCP (RFU)” value in assay [1] stood at 673000 RFU; in [10], 480000 RFU. Besides, the EC50 in [2] is 0.062 nM; in assay [3] it was 0.062 nM; in [4], under 0.1 nM; in [5], 57.6 nM; in [6], over 50 nM; in assay [7], 0.062 nM. Further, the EC50 in assay [8] was found to be 67 nM; in [9], 67 nM; in [11], 67 nM; in assay [13], 57.6 nM. In addition, in [12], the “relative ADCP” value was 1.36 relative to ADCP response of rfmAb-1.

B4: 20O07A (mIgG1) (antibody, V domains shown)
VH: B3 VH with M34I, A55V, A61V, N104I
VL: B3 VL with F48L, V100F
notes: chimeric: fully human F(ab')2, mouse IgG1 CH2-CH3; also called Chimeric mouse 20O07A (mlgG1)
On to B4, for which the half-maximal effective concentration (EC50) in [2] is 0.05 nM; in assay [4], under 0.1 nM; in assay [6] it was over 50 nM; in assay [7], 0.05 nM; in [8] it was 2.57 nM; in assay [9], 2.57 nM. This molecule also showed an EC50 in [13] of 336 nM. Moreover, the “ADCP (RFU)” value in assay [10] turned out to be 334000 RFU. Further, the “relative ADCP” value in assay [12] was 1.05 relative to ADCP response of rfmAb-1. In addition, in assay [14], the “ratio of IC50 monomer to IC50 protofibril” value was over 300 fold.
